Here are results for two molecules from paper PMC9668737, “Herpes simplex virus 1 protein pUL21 alters ceramide metabolism by activating the interorganelle transport protein CERT” (The Journal of Biological Chemistry, 2022).

One test has as its target T1, H6-miniCERTL (human, UniProt Q9Y5P4-1 20-624, residues 20–131 plus 351–624 (MR residues 132 to 350 excluded)).
T1 construct: human CERTL, UniProt Q9Y5P4-1, residues 20-131 plus 351-624 (PH and STARTL domains joined by a retained 23 amino acid stretch of the middle region); Cloned into pOPTH; Monomer by SEC-MALS; source: E. coli T7 Express lysY/Iq, purified (Ni-NTA, SEC); not shown: MAH6, N-terminal, kept
T1 sequence (looked up): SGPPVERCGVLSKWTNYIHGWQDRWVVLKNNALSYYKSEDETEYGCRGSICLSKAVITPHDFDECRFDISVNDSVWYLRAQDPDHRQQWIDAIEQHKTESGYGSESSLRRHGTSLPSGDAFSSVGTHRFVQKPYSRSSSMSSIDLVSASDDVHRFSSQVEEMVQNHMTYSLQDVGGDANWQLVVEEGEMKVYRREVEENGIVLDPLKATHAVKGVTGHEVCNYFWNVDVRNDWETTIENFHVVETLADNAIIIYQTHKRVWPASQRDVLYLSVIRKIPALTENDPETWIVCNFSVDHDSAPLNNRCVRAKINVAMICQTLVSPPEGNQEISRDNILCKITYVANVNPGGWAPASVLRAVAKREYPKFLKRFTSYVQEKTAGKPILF
Kind of test: ITC; 25 °C; 20 mM Tris pH 8.5, 500 mM NaCl, 0.5 mM TCEP; CERTL forms in the syringe titrated into pUL21 forms in the cell; one-site binding model. Particulars: both partners purified.

The target in a further test is T2, StrepII-CERT^P (UniProt Q9Y5P4-2 1-598, hyperphosphorylated (sites not given)).
T2 sequence (looked up): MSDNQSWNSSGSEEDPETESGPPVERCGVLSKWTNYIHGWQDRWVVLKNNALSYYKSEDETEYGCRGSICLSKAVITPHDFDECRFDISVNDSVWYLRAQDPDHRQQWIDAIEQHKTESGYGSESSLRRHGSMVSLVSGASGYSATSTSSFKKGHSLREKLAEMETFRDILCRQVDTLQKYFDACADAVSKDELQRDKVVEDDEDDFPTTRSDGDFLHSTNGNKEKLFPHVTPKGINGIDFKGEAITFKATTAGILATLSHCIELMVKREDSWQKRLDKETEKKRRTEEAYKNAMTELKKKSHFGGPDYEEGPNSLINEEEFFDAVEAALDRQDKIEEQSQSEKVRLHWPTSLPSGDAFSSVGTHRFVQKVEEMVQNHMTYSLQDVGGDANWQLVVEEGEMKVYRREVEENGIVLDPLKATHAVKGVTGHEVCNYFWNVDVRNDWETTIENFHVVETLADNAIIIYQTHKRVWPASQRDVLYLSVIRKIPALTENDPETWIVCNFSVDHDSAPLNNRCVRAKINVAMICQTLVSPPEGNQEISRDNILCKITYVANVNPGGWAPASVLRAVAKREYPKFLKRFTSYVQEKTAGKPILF
Kind of test: cell-based or functional assay.

For a further test, the target named is T3, StrepII-CERTL^S132A (human, UniProt Q9Y5P4-1 1-624, S132A, hypophosphorylated).
T3 construct: human CERTL, UniProt Q9Y5P4-1, synthetic gene, S132A; Trimer by SEC-MALS (observed 199.2 kDa); also called constitutively hypophosphorylated form of CERTL; source: Freestyle 293F, stably transfected, doxycycline-induced, purified (StrepTrap HP, Superose 6 SEC); not shown: StrepII, N-terminal, kept
T3 sequence (looked up): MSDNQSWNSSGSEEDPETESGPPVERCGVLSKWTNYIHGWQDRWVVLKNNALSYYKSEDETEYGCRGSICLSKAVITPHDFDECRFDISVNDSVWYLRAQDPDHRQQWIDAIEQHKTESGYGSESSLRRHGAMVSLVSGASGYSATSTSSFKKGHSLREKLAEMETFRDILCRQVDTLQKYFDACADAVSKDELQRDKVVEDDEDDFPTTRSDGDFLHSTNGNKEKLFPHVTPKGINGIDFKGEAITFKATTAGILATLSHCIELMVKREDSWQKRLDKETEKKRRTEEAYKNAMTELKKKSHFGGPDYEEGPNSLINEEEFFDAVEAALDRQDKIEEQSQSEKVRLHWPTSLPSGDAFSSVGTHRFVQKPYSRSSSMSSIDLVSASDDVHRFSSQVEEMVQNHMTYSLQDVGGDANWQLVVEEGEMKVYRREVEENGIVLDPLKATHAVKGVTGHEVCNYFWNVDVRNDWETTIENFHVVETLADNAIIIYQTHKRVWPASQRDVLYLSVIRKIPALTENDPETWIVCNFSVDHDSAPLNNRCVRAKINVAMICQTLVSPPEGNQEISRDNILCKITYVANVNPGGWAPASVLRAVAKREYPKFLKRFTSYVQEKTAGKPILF
Kind of test: ITC; 25 °C; 20 mM Tris pH 8.5, 500 mM NaCl, 0.5 mM TCEP; CERTL forms in the syringe titrated into pUL21 forms in the cell; one-site binding model. The settings on record: both partners purified.

Test [1] concerns the target T4, StrepII-CERTL^P (hyperphosphorylated StrepII-tagged CERTL) (human, UniProt Q9Y5P4-1 1-624, hyperphosphorylated (sites not given)).
T4 construct: human CERTL, UniProt Q9Y5P4-1, synthetic gene; Trimer by SEC-MALS (observed 184.3 kDa, expected 215.7 kDa); not shown: StrepII, N-terminal, kept
T4 sequence (looked up): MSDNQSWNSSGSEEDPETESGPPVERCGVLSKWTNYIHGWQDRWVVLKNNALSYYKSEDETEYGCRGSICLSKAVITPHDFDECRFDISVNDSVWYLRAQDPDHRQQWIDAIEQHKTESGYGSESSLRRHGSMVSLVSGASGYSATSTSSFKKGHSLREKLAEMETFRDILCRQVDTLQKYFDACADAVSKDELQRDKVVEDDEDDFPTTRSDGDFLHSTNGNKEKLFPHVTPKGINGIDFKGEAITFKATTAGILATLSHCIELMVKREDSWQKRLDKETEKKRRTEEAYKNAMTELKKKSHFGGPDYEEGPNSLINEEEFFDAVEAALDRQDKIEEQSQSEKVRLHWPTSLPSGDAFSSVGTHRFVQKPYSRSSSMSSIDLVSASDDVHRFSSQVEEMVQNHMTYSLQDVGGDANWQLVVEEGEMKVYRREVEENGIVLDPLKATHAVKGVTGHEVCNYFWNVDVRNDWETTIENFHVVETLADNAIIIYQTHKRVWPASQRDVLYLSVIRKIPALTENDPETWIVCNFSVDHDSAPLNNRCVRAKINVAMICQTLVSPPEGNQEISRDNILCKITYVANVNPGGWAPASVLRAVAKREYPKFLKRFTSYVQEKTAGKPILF
Described as above. Particulars: both partners purified.

B1: H6-pUL21C (domain or fragment)
chain: QDSAPPGPTLRELWWVFYAADRALEEPRADSGLTREEVRAVRGFREQAWKLFGSAGAPRAFIGAALGLSPLQKLAVYYYIIHRERRLSPFPALVRLVGRYTQRHGLYVPRPDDPVLADAINGLFRDALAAGTTAEQLLMFDLLPPKDVPVGSDVQADSTALLRFIESQRLAVPGGVISPEHVAYLGAFLSVLYAGRGRMSAATHTARLTGVTSLVLAVGDVDRLSAFDRGAAGAASRTRAAGYLDVLLTVRLARSQHGQSV
notes: HSV-1 pUL21 C-terminal domain, amino acids 275-535, UniProt F8RG07; Cloned in pOPTH; Monomer by SEC-MALS and SAXS; also called C-terminal domain of pUL21; source: E. coli T7 Express lysY/Iq, purified (Ni-NTA, SEC); not shown: MAH6, N-terminal, kept
Turning to B1, the Kd in the test with H6-miniCERTL worked out at 4.33 µM.

B2: pUL21-H6 (natural protein)
chain: MELSYATTMHYRDVVFYVTTDRNRAYFVCGGCVYSVGRPCASQPGEIAKFGLVVRGTGPDDRVVANYVRSELRQRGLQDVRPIGEDEVFLDSVCLLNPNVSSELDVINTNDVEVLDECLAEYCTSLRTSPGVLISGLRVRAQDRIIELFEHPTIVNVSSHFVYTPSPYVFALAQAHLPRLPSSLEALVSGLFDGIPAPRQPLDAHNPRTDVVITGRRAPRPIAGSGAGSGGAGAKRATVSEFVQVKHIDRVGPAGVSPAPPPNNTDSSSLVPGAQDSAPPGPTLRELWWVFYAADRALEEPRADSGLTREEVRAVRGFREQAWKLFGSAGAPRAFIGAALGLSPLQKLAVYYYIIHRERRLSPFPALVRLVGRYTQRHGLYVPRPDDPVLADAINGLFRDALAAGTTAEQLLMFDLLPPKDVPVGSDVQADSTALLRFIESQRLAVPGGVISPEHVAYLGAFLSVLYAGRGRMSAATHTARLTGVTSLVLAVGDVDRLSAFDRGAAGAASRTRAAGYLDVLLTVRLARSQHGQSV
notes: HSV-1 pUL21, UniProt F8RG07; some paragraphs print H6-pUL21; also called H6-pUL21; WT pUL21; source: E. coli T7 Express lysY/Iq, purified (Ni-NTA, SEC); not shown: His6, C-terminal, kept
Regarding B2, the “EC50 of pUL21-H6 (62.5 nM to 4 μM) for accelerating GST-PP1-mediated dephosphorylation of 0.5 μM CERT^P in vitro, all proteins purified, 25 nM GST-PP1γ, 30 min at 30 °C” value with StrepII-CERT^P stood at 0.491 μM. For the same molecule, the results for the Kd (in the test with StrepII-CERTL^S132A; in test [1]) were 642 nM and 773 nM, respectively.
